Literature values in article PMC5123080.

Target: UNC5B ECD (Mus musculus) (UniProt Q8K1S3)
UniProt Q8K1S3, sequence (Q8K1S3 27-377): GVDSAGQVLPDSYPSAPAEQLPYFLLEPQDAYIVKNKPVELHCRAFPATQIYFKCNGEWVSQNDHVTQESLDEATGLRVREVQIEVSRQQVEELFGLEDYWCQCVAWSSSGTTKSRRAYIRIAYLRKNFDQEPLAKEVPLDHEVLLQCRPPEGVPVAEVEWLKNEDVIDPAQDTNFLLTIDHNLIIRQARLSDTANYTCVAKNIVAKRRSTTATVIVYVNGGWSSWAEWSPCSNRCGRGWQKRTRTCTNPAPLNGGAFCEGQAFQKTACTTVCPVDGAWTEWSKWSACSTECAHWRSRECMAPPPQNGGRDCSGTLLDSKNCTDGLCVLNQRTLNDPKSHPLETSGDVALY

Kd: 12 nM
Substance: Robo4 ECD (from UniProt Q8C310)
